The text below walks through data of US20260193335A1 (ZOETIS SERVICES, published 2026).

In assay [1] the target is T1, Feline FcRn (complex of FcRn-α subunit and β-microglobulin, C-terminal His tag) (feline, UniProt A0ABI7ZNY9 23-296; Q5MGS7 21-118).
T1 construct: treated here as one molecule
Put plainly: SPR Biacore, biotin-FcRn on SA chip, pH 6. Here is the method:
(§1) Feline FcRn was isolated, prepared and mutant Fc IgGs were assayed against feline FcRn according to Strietzel et. al., discussed above. Standard PCR was used to amplify feline FcRn-α subunit and β-microglobulin. FcRn-α subunit and β-microglobulin were co-transfected into HEK 293 cells and the FcRn complex was purified by IMAC affinity purification via the c-terminal His tag. FcRn complex was biotin labeled through BirA enzymatic biotinylatoin reaction. KD's were measured by Biacore T200 (GE Healthcare, Pittsburgh, PA, USA) or Biacore 8K (Cytiva, Marlborough, MA, USA) using a SA sensor chip.
(§2) FcRn was captured on the surface of the sensor using a modified SA capture method. 10 mM MES; 150 mM NaCl; 0.005% Tween20; 0.5 mg/mL BSA; pH6 was used as capture, method running buffer and titrations. 1×HBS-P, 0.5 mg/mL BSA; pH7.4 was also used for method running buffer and titrations. Fc mutant IgGs were flowed over receptor surfaces and affinity was determined using T200 evaluation software or Biacore Insight Evaluation software. Blank runs containing buffer only were subtracted out from all runs. Flow cells were regenerated using 50 mM Tris pH8 or pH9. Runs were performed at 15° C.
A general note: SPR reads the build-up and loss of mass on a sensor chip optically.

Assay [2] deals with T1, Feline FcRn (complex of FcRn-α subunit …). Nature of the assay: SPR Biacore, biotin-FcRn on SA chip, pH 7.4. On the procedure: as §1, §2
For assay [3] the target is unchanged. Put plainly: SPR Biacore, FcRn amine-coupled on CM5, pH 7.2. On the procedure:
(§3) Feline FcRn was isolated, prepared and mutant Fc IgGs were assayed against feline FcRn according to Strietzelg et. al. Standard RACE PCR was used to amplify feline FcRn-α subunit and β-microglobulin. FcRn-α subunit and β-microglobulin were co-transfected into HEK 293 cells and the FcRn complex was purified by IMAC affinity purification via the c-terminal His tag. KD's were measured by Biacore 3000 or Biacore T200 (GE Healthcare, Pittsburgh, PA, USA) using a CM5 sensor chip.
(§4) FcRn was immobilized on the surface of the sensor using the standard amine immobilization method to reach the desired surface density. HBS-EP was used as the immobilization running buffer and 10 mM MES; 150 mM NaCl; 0.005% Tween20; 0.5 mg/mL BSA; pH6 and pH7.2 and PBS; 0.005% Tween20; 0.5 mg/mL BSA; pH7.4 were used for method running buffers and titrations. Fc mutant IgGs were flowed over receptor surfaces and affinity was determined using Scrubber2 software analysis (BioLogic Software Pty, Ltd., Campbell, Australia) or T200 evaluation software (Table 2). Blank runs containing buffer only were subtracted out from all runs. Flow cells were regenerated using 50 mM Tris pH8. Runs were performed at 15° C.

For assay [4] the target is unchanged. Put plainly: SPR Biacore, FcRn amine-coupled on CM5, pH 6. Here is the method:
as §3, §4

B1: mAb4 (felinized anti-IL31 antibody ZTS-5864) S428M and S434F, feline IgG1a (antibody)
heavy: DVQLVESGGDLVKPGGSLRLTCVASGFTFSDYAMSWVRQAPGKGLQWVAGIDSVGSGTSYADSVKGRFTISRDNAKNTLYLQMNSLKTEDTATYYCASGFPGSFEHWGQGTLVTVSSASTTAPSVFPLAPSCGTTSGATVALACLVLGYFPEPVTVSWNSGALTSGVHTFPAVLQASGLYSLSSMVTVPSSRWLSDTFTCNVAHPPSNTKVDKTVRKTDHPPGPKPCDCPKCPPPEMLGGPSIFIFPPKPKDTLSISRTPEVTCLVVDLGPDDSDVQITWFVDNTQVYTAKTSPREEQFNSTYRVVSVLPILHQDWLKGKEFKCKVNSKSLPSPIERTISKAKGQPHEPQVYVLPPAQEELSRNKVSVTCLIKSFHPPDIAVEWEITGQPEPENNYRTTPPQLDSDGTYFVYSKLSVDRSHWQRGNTYTCSVMHEALHFHHTQKSLTQSPGK
VL: QSVLTQPSSVSGTLGQRITISCTGSSSNIGSGYVGWYQQVPGMGPKTVIYYNSDRPSGVPDRFSGSKSGSSGTLTITGLQAEDEADYYCSVYDRTFNAVFGGGT
notes: also called mAb4 ID No. 33
For B1, the results for the dissociation constant Kd in assay [1] and in assay [2] were 4.29 nM and 4010 nM, respectively.

B2: mAb4 (felinized anti-IL31 antibody ZTS-5864) S428Q, feline IgG1a (antibody)
heavy: DVQLVESGGDLVKPGGSLRLTCVASGFTFSDYAMSWVRQAPGKGLQWVAGIDSVGSGTSYADSVKGRFTISRDNAKNTLYLQMNSLKTEDTATYYCASGFPGSFEHWGQGTLVTVSSASTTAPSVFPLAPSCGTTSGATVALACLVLGYFPEPVTVSWNSGALTSGVHTFPAVLQASGLYSLSSMVTVPSSRWLSDTFTCNVAHPPSNTKVDKTVRKTDHPPGPKPCDCPKCPPPEMLGGPSIFIFPPKPKDTLSISRTPEVTCLVVDLGPDDSDVQITWFVDNTQVYTAKTSPREEQFNSTYRVVSVLPILHQDWLKGKEFKCKVNSKSLPSPIERTISKAKGQPHEPQVYVLPPAQEELSRNKVSVTCLIKSFHPPDIAVEWEITGQPEPENNYRTTPPQLDSDGTYFVYSKLSVDRSHWQRGNTYTCSVQHEALHSHHTQKSLTQSPGK
VL: QSVLTQPSSVSGTLGQRITISCTGSSSNIGSGYVGWYQQVPGMGPKTVIYYNSDRPSGVPDRFSGSKSGSSGTLTITGLQAEDEADYYCSVYDRTFNAVFGGGT
notes: also called mAb4 ID No. 15
For the molecule B2, the binding result in assay [2] is recorded as “no binding”.

B3: mAb4 (felinized anti-IL31 antibody ZTS-5864) S428T, feline IgG1a (antibody)
heavy: DVQLVESGGDLVKPGGSLRLTCVASGFTFSDYAMSWVRQAPGKGLQWVAGIDSVGSGTSYADSVKGRFTISRDNAKNTLYLQMNSLKTEDTATYYCASGFPGSFEHWGQGTLVTVSSASTTAPSVFPLAPSCGTTSGATVALACLVLGYFPEPVTVSWNSGALTSGVHTFPAVLQASGLYSLSSMVTVPSSRWLSDTFTCNVAHPPSNTKVDKTVRKTDHPPGPKPCDCPKCPPPEMLGGPSIFIFPPKPKDTLSISRTPEVTCLVVDLGPDDSDVQITWFVDNTQVYTAKTSPREEQFNSTYRVVSVLPILHQDWLKGKEFKCKVNSKSLPSPIERTISKAKGQPHEPQVYVLPPAQEELSRNKVSVTCLIKSFHPPDIAVEWEITGQPEPENNYRTTPPQLDSDGTYFVYSKLSVDRSHWQRGNTYTCSVTHEALHSHHTQKSLTQSPGK
VL: QSVLTQPSSVSGTLGQRITISCTGSSSNIGSGYVGWYQQVPGMGPKTVIYYNSDRPSGVPDRFSGSKSGSSGTLTITGLQAEDEADYYCSVYDRTFNAVFGGGT
notes: also called mAb4 ID No. 17
Turning to B3, the binding result in assay [2] is “no binding”.

B4: mAb4 (felinized anti-IL31 antibody ZTS-5864) S428R, feline IgG1a (antibody)
heavy: DVQLVESGGDLVKPGGSLRLTCVASGFTFSDYAMSWVRQAPGKGLQWVAGIDSVGSGTSYADSVKGRFTISRDNAKNTLYLQMNSLKTEDTATYYCASGFPGSFEHWGQGTLVTVSSASTTAPSVFPLAPSCGTTSGATVALACLVLGYFPEPVTVSWNSGALTSGVHTFPAVLQASGLYSLSSMVTVPSSRWLSDTFTCNVAHPPSNTKVDKTVRKTDHPPGPKPCDCPKCPPPEMLGGPSIFIFPPKPKDTLSISRTPEVTCLVVDLGPDDSDVQITWFVDNTQVYTAKTSPREEQFNSTYRVVSVLPILHQDWLKGKEFKCKVNSKSLPSPIERTISKAKGQPHEPQVYVLPPAQEELSRNKVSVTCLIKSFHPPDIAVEWEITGQPEPENNYRTTPPQLDSDGTYFVYSKLSVDRSHWQRGNTYTCSVRHEALHSHHTQKSLTQSPGK
VL: QSVLTQPSSVSGTLGQRITISCTGSSSNIGSGYVGWYQQVPGMGPKTVIYYNSDRPSGVPDRFSGSKSGSSGTLTITGLQAEDEADYYCSVYDRTFNAVFGGGT
notes: also called mAb4 ID No. 16
In the case of B4, the binding result in assay [2] is “no binding”.

B5: mAb4 (felinized anti-IL31 antibody ZTS-5864) S428W, feline IgG1a (antibody)
heavy: DVQLVESGGDLVKPGGSLRLTCVASGFTFSDYAMSWVRQAPGKGLQWVAGIDSVGSGTSYADSVKGRFTISRDNAKNTLYLQMNSLKTEDTATYYCASGFPGSFEHWGQGTLVTVSSASTTAPSVFPLAPSCGTTSGATVALACLVLGYFPEPVTVSWNSGALTSGVHTFPAVLQASGLYSLSSMVTVPSSRWLSDTFTCNVAHPPSNTKVDKTVRKTDHPPGPKPCDCPKCPPPEMLGGPSIFIFPPKPKDTLSISRTPEVTCLVVDLGPDDSDVQITWFVDNTQVYTAKTSPREEQFNSTYRVVSVLPILHQDWLKGKEFKCKVNSKSLPSPIERTISKAKGQPHEPQVYVLPPAQEELSRNKVSVTCLIKSFHPPDIAVEWEITGQPEPENNYRTTPPQLDSDGTYFVYSKLSVDRSHWQRGNTYTCSVWHEALHSHHTQKSLTQSPGK
VL: QSVLTQPSSVSGTLGQRITISCTGSSSNIGSGYVGWYQQVPGMGPKTVIYYNSDRPSGVPDRFSGSKSGSSGTLTITGLQAEDEADYYCSVYDRTFNAVFGGGT
notes: also called mAb4 ID No. 19
As for B5, in assay [2], the binding result was “no binding”.

B6: mAb4 (felinized anti-IL31 antibody ZTS-5864) S428P, feline IgG1a (antibody)
heavy: DVQLVESGGDLVKPGGSLRLTCVASGFTFSDYAMSWVRQAPGKGLQWVAGIDSVGSGTSYADSVKGRFTISRDNAKNTLYLQMNSLKTEDTATYYCASGFPGSFEHWGQGTLVTVSSASTTAPSVFPLAPSCGTTSGATVALACLVLGYFPEPVTVSWNSGALTSGVHTFPAVLQASGLYSLSSMVTVPSSRWLSDTFTCNVAHPPSNTKVDKTVRKTDHPPGPKPCDCPKCPPPEMLGGPSIFIFPPKPKDTLSISRTPEVTCLVVDLGPDDSDVQITWFVDNTQVYTAKTSPREEQFNSTYRVVSVLPILHQDWLKGKEFKCKVNSKSLPSPIERTISKAKGQPHEPQVYVLPPAQEELSRNKVSVTCLIKSFHPPDIAVEWEITGQPEPENNYRTTPPQLDSDGTYFVYSKLSVDRSHWQRGNTYTCSVPHEALHSHHTQKSLTQSPGK
VL: QSVLTQPSSVSGTLGQRITISCTGSSSNIGSGYVGWYQQVPGMGPKTVIYYNSDRPSGVPDRFSGSKSGSSGTLTITGLQAEDEADYYCSVYDRTFNAVFGGGT
notes: also called mAb4 ID No. 14
B6: the binding result in assay [2] is “no binding”.

B7: Anti-NGF antibody of Table 3, S434Q (antibody)
heavy: DVQLVESGGDLVKPGGSLRLTCVASGFTYSNYWMHWVRQAPGKGLQWVARIDPYGGGTKHNEKFKRRFTISRDNAKNTLYLQMNSLKTEDTATYYCVRSGYDYYFDVWGQGTLVTVSSASTTAPSVFPLAPSCGTTSGATVALACLVLGYFPEPVTVSWNSGALTSGVHTFPAVLQASGLYSLSSMVTVPSSRWLSDTFTCNVAHPPSNTKVDKTVRKTDHPPGPKPCDCPKCPPPEMLGGPSIFIFPPKPKDTLSISRTPEVTCLVVDLGPDDSDVQITWFVDNTQVYTAKTSPREEQFNSTYRVVSVLPILHQDWLKGKEFKCKVNSKSLPSPIERTISKAKGQPHEPQVYVLPPAQEELSRNKVSVTCLIKSFHPPDIAVEWEITGQPEPENNYRTTPPQLDSDGTYFVYSKLSVDRSHWQRGNTYTCSVSHEALHQHHTQKSLTQSPGK
light: EIQMTQSPSSLSASPGDRVTITCRASENIYSFLAWYQQKPGKVPKLLIYNANTLAEGVPSRFSGSGSGTDFTLTISSLEPEDAATYYCQHHFGTPFTFGSGTKLEIKRSDAQPSVFLFQPSLDELHTGSASIVCILNDFYPKEVNVKWKVDGVVQNKGIQESTTEQNSKDSTYSLSSTLTMSSTEYQSHEKFSCEVTHKSLASTLVKSFQRSECQRE
As to B7, the Kd in assay [3] was found to be 0.0801 nM; in assay [4], 4.8 nM.

Usually Kd stands for the equilibrium constant for the complex coming apart. Low values mean tighter binding, high ones weaker binding.
